Test results as given in patent publication US20200148732A1 (UNIVERSITY OF COPENHAGEN, published 2020).

Experiments:
[1] = biological target: T1, GFP-TONSL N571A (Homo sapiens, UniProt Q96HA7 1-1378); test: GFP immunoprecipitation of GFP-TONSL from transfected HeLa S3 cells, western blot (co-IP; association may be indirect)
T1 construct: also called TONSL N571A / GFP; not shown: N-terminal GFP tag
T1 sequence: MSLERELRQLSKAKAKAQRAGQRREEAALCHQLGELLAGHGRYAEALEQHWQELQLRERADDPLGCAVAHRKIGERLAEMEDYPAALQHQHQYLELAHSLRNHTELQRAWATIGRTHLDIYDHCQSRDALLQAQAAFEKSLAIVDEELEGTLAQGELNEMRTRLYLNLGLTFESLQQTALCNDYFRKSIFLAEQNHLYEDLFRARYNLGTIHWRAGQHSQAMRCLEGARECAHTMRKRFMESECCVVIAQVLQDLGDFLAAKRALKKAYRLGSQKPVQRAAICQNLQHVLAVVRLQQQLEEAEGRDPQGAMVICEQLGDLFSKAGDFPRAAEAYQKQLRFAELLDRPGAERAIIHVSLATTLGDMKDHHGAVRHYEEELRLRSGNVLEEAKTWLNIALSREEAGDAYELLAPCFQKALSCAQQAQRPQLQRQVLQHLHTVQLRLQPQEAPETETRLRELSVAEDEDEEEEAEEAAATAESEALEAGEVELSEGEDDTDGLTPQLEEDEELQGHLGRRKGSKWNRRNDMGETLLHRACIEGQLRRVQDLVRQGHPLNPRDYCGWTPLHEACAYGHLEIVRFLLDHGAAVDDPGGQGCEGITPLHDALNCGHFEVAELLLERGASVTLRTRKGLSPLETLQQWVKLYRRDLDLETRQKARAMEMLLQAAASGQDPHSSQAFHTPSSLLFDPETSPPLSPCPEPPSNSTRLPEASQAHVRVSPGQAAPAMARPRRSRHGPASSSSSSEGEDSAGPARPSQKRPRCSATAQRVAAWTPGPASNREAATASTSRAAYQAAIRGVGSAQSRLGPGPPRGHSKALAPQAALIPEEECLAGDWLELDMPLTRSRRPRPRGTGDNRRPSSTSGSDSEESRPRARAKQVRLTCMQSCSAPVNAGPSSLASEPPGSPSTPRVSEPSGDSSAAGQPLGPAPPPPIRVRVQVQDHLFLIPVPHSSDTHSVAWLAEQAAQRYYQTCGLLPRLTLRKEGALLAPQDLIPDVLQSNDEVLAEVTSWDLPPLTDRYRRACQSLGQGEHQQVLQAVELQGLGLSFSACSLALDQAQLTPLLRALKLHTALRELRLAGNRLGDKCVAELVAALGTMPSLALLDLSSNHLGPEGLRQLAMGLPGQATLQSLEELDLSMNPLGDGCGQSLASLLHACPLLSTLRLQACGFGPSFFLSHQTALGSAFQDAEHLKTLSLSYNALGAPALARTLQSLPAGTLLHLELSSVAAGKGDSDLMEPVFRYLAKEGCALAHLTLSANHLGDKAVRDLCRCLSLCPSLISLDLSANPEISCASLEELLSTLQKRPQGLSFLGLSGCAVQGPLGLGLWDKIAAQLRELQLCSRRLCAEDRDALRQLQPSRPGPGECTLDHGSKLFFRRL

[2] = biological target: T2, GFP-TONSL D559A (Homo sapiens, UniProt Q96HA7 1-1378); test: as above
T2 construct: also called TONSL D559A / GFP; not shown: N-terminal GFP tag
T2 sequence: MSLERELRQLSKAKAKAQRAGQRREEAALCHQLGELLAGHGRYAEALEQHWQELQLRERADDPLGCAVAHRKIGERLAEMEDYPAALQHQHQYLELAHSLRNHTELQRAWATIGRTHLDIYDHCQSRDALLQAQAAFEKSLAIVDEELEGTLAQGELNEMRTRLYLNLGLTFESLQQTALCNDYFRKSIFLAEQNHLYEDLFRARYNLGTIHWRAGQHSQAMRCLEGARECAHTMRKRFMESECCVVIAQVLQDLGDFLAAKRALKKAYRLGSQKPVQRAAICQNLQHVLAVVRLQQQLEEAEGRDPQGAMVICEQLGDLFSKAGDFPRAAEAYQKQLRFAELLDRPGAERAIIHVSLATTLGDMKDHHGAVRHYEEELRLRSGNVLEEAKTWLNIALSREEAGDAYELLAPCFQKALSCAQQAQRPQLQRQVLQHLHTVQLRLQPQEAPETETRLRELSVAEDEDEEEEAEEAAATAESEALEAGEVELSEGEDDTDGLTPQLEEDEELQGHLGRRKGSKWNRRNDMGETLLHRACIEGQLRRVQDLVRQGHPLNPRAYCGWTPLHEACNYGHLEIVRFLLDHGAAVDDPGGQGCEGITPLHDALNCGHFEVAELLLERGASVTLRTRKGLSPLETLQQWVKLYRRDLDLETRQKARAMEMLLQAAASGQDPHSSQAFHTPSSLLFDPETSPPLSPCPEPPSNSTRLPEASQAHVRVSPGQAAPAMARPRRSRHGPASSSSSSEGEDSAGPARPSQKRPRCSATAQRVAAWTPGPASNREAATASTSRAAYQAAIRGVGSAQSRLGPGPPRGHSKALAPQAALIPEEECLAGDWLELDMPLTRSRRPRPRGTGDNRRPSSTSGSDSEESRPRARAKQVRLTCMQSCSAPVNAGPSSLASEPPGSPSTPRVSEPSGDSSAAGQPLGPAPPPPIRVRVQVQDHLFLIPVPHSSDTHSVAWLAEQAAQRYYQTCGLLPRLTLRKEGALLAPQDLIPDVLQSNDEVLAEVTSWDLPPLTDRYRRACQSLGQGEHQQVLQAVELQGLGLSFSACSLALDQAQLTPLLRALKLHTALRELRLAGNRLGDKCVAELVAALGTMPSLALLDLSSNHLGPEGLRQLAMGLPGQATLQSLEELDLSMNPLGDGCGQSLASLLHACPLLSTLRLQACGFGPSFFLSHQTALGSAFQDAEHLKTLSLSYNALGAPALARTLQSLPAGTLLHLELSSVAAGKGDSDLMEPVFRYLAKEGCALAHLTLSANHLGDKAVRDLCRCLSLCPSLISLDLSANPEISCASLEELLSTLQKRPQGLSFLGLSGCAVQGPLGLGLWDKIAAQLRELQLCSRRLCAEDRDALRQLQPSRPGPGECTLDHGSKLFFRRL

binding result [1]: binds | binding result [2]: binds
B1: MMS22L (endogenous, in cell extracts) (other, UniProt Q6ZRQ5 1-1243, looked up)
chain: MENCSAASTFLTDSLELELGTEWCKPPYFSCAVDNRGGGKHFSGESYLCSGALKRLILNLDPLPTNFEEDTLEIFGIQWVTETALVNSSRELFHLFRQQLYNLETLLQSSCDFGKVSTLHCKADNIRQQCVLFLHYVKVFIFRYLKVQNAESHVPVHPYEALEAQLPSVLIDELHGLLLYIGHLSELPSVNIGAFVNQNQIKLFPPSWHLLHLHLDIHWLVLEILYMLGEKLKQVVYGHQFMNLASDNLTNISLFEEHCETLLCDLISLSLNRYDKVRSSESLMSDQCPCLCIKELWVLLIHLLDHRSKWFVSESFWNWLNKLLKTLLEKSSDRRRSSMPVIQSRDPLGFSWWIITHVASFYKFDRHGVPDEMRKVESNWNFVEELLKKSISVQGVILEEQLRMYLHCCLTLCDFWEPNIAIVTILWEYYSKNLNSSFSISWLPFKGLANTMKSPLSMLEMVKTCCCDKQDQELYKSSSSYTIFLCILAKVVKKAMKSNGPHPWKQVKGRIYSKFHQKRMEELTEVGLQNFFSLFLLLAAVAEVEDVASHVLDLLNFLKPAFVTSQRALIWKGHMAFLLMYAQKNLDIGVLAEKFSCAFREKAKEFLVSKNEEMVQRQTIWTLLSIYIDGVQEVFETSYCLYPSHEKLLNDGFSMLLRACRESELRTVLSFLQAVLARIRSMHQQLCQELQRDNVDLFVQSSLSAKERHLAAVASALWRHFFSFLKSQRMSQVVPFSQLADAAADFTLLAMDMPSTAPSDFQPQPVISIIQLFGWDDIICPQVVARYLSHVLQNSTLCEALSHSGYVSFQALTVRSWIRCVLQMYIKNLSGPDDLLIDKNLEEAVEKEYMKQLVKLTRLLFNLSEVKSIFSKAQVEYLSISEDPKKALVRFFEAVGVTYGNVQTLSDKSAMVTKSLEYLGEVLKYIKPYLGKKVFSAGLQLTYGMMGILVKSWAQIFATSKAQKLLFRIIDCLLLPHAVLQQEKELPAPMLSAIQKSLPLYLQGMCIVCCQSQNPNAYLNQLLGNVIEQYIGRFLPASPYVSDLGQHPVLLALRNTATIPPISSLKKCIVQVIRKSYLEYKGSSPPPRLASILAFILQLFKETNTDIYEVELLLPGILKCLVLVSEPQVKRLATENLQYMVKACQVGSEEEPSSQLTSVFRQFIQDYGMRYYYQVYSILETVATLDQQVVIHLISTLTQSLKDSEQKWGLGRNIAQREAYSKLLSHLGQMGQDEMQRLENDNT
